To fix the notation:
B1: Y85LF89AL92AY93L: mutated TriA variant of SEQ ID NO: 2 (protein)
chain: MQTLSIQHGTLVTMDQYRRVLGDSWVHVQDGRIVALGVHAESVPPPADRVIDARGKVVLPGFINAHTHVNQILLRGGPSHGRQLLDWLANVALPGQKAMRPEDVAVAVRLYCAEAVRSGITTINDNADSAIYPGNIEAAMAVYGEVGVRVVYARMFFDRMDGRIQGYVDALKARSPQVELCSIMEETAVAKDRITALSDQYHGTAGGRISVWPAPAITPAVTVEGMRWAQAFARDRAVMWTLHMAESDHDERLHWMSPAEYMECYGLLDERLQVAHCVYFDRKDVRLLHRHNVKVASQVVSNAYLGSGVAPVPEMVERGMAVGIGTDDGNCNDSVNMIGDMKFMAHIHRAVHRDADVLTPEKILEMATIDGARSLGMDHEIGSIETGKRADLILLDLRHPQTTPHHHLAATIVFQAYGNEVDTVLIDGNVVMENRRLSFLPPERELAFLEEAQSRATAILQRANMVANPAWRSL
modifications: Pseudomonas
B2: Y85LL88AL92AY93V: mutated TriA variant of SEQ ID NO: 2 (protein)
chain: MQTLSIQHGTLVTMDQYRRVLGDSWVHVQDGRIVALGVHAESVPPPADRVIDARGKVVLPGFINAHTHVNQILLRGGPSHGRQLLDWAFNVAVPGQKAMRPEDVAVAVRLYCAEAVRSGITTINDNADSAIYPGNIEAAMAVYGEVGVRVVYARMFFDRMDGRIQGYVDALKARSPQVELCSIMEETAVAKDRITALSDQYHGTAGGRISVWPAPAITPAVTVEGMRWAQAFARDRAVMWTLHMAESDHDERLHWMSPAEYMECYGLLDERLQVAHCVYFDRKDVRLLHRHNVKVASQVVSNAYLGSGVAPVPEMVERGMAVGIGTDDGNCNDSVNMIGDMKFMAHIHRAVHRDADVLTPEKILEMATIDGARSLGMDHEIGSIETGKRADLILLDLRHPQTTPHHHLAATIVFQAYGNEVDTVLIDGNVVMENRRLSFLPPERELAFLEEAQSRATAILQRANMVANPAWRSL
modifications: Pseudomonas
B3: L92AY93LD250S: mutated TriA variant of SEQ ID NO: 2 (protein)
chain: MQTLSIQHGTLVTMDQYRRVLGDSWVHVQDGRIVALGVHAESVPPPADRVIDARGKVVLPGFINAHTHVNQILLRGGPSHGRQLYDWLFNVALPGQKAMRPEDVAVAVRLYCAEAVRSGITTINDNADSAIYPGNIEAAMAVYGEVGVRVVYARMFFDRMDGRIQGYVDALKARSPQVELCSIMEETAVAKDRITALSDQYHGTAGGRISVWPAPAITPAVTVEGMRWAQAFARDRAVMWTLHMAESDHSERLHWMSPAEYMECYGLLDERLQVAHCVYFDRKDVRLLHRHNVKVASQVVSNAYLGSGVAPVPEMVERGMAVGIGTDDGNCNDSVNMIGDMKFMAHIHRAVHRDADVLTPEKILEMATIDGARSLGMDHEIGSIETGKRADLILLDLRHPQTTPHHHLAATIVFQAYGNEVDTVLIDGNVVMENRRLSFLPPERELAFLEEAQSRATAILQRANMVANPAWRSL
modifications: Pseudomonas
B4: Y85LL92AY93LD128AD250S: mutated TriA variant of SEQ ID NO: 2 (protein)
chain: MQTLSIQHGTLVTMDQYRRVLGDSWVHVQDGRIVALGVHAESVPPPADRVIDARGKVVLPGFINAHTHVNQILLRGGPSHGRQLLDWLFNVALPGQKAMRPEDVAVAVRLYCAEAVRSGITTINDNAASAIYPGNIEAAMAVYGEVGVRVVYARMFFDRMDGRIQGYVDALKARSPQVELCSIMEETAVAKDRITALSDQYHGTAGGRISVWPAPAITPAVTVEGMRWAQAFARDRAVMWTLHMAESDHSERLHWMSPAEYMECYGLLDERLQVAHCVYFDRKDVRLLHRHNVKVASQVVSNAYLGSGVAPVPEMVERGMAVGIGTDDGNCNDSVNMIGDMKFMAHIHRAVHRDADVLTPEKILEMATIDGARSLGMDHEIGSIETGKRADLILLDLRHPQTTPHHHLAATIVFQAYGNEVDTVLIDGNVVMENRRLSFLPPERELAFLEEAQSRATAILQRANMVANPAWRSL
modifications: Pseudomonas
B5: L88AL92AY93V: mutated TriA variant of SEQ ID NO: 2 (protein)
chain: MQTLSIQHGTLVTMDQYRRVLGDSWVHVQDGRIVALGVHAESVPPPADRVIDARGKVVLPGFINAHTHVNQILLRGGPSHGRQLYDWAFNVAVPGQKAMRPEDVAVAVRLYCAEAVRSGITTINDNADSAIYPGNIEAAMAVYGEVGVRVVYARMFFDRMDGRIQGYVDALKARSPQVELCSIMEETAVAKDRITALSDQYHGTAGGRISVWPAPAITPAVTVEGMRWAQAFARDRAVMWTLHMAESDHDERLHWMSPAEYMECYGLLDERLQVAHCVYFDRKDVRLLHRHNVKVASQVVSNAYLGSGVAPVPEMVERGMAVGIGTDDGNCNDSVNMIGDMKFMAHIHRAVHRDADVLTPEKILEMATIDGARSLGMDHEIGSIETGKRADLILLDLRHPQTTPHHHLAATIVFQAYGNEVDTVLIDGNVVMENRRLSFLPPERELAFLEEAQSRATAILQRANMVANPAWRSL
modifications: Pseudomonas
B6: Y85LL92AY93LD250S: mutated TriA variant of SEQ ID NO: 2 (protein)
chain: MQTLSIQHGTLVTMDQYRRVLGDSWVHVQDGRIVALGVHAESVPPPADRVIDARGKVVLPGFINAHTHVNQILLRGGPSHGRQLLDWLFNVALPGQKAMRPEDVAVAVRLYCAEAVRSGITTINDNADSAIYPGNIEAAMAVYGEVGVRVVYARMFFDRMDGRIQGYVDALKARSPQVELCSIMEETAVAKDRITALSDQYHGTAGGRISVWPAPAITPAVTVEGMRWAQAFARDRAVMWTLHMAESDHSERLHWMSPAEYMECYGLLDERLQVAHCVYFDRKDVRLLHRHNVKVASQVVSNAYLGSGVAPVPEMVERGMAVGIGTDDGNCNDSVNMIGDMKFMAHIHRAVHRDADVLTPEKILEMATIDGARSLGMDHEIGSIETGKRADLILLDLRHPQTTPHHHLAATIVFQAYGNEVDTVLIDGNVVMENRRLSFLPPERELAFLEEAQSRATAILQRANMVANPAWRSL
modifications: Pseudomonas
B7: N70VQ71T: mutated TriA variant of SEQ ID NO: 2 (protein)
chain: MQTLSIQHGTLVTMDQYRRVLGDSWVHVQDGRIVALGVHAESVPPPADRVIDARGKVVLPGFINAHTHVVTILLRGGPSHGRQLYDWLFNVLYPGQKAMRPEDVAVAVRLYCAEAVRSGITTINDNADSAIYPGNIEAAMAVYGEVGVRVVYARMFFDRMDGRIQGYVDALKARSPQVELCSIMEETAVAKDRITALSDQYHGTAGGRISVWPAPAITPAVTVEGMRWAQAFARDRAVMWTLHMAESDHDERLHWMSPAEYMECYGLLDERLQVAHCVYFDRKDVRLLHRHNVKVASQVVSNAYLGSGVAPVPEMVERGMAVGIGTDDGNCNDSVNMIGDMKFMAHIHRAVHRDADVLTPEKILEMATIDGARSLGMDHEIGSIETGKRADLILLDLRHPQTTPHHHLAATIVFQAYGNEVDTVLIDGNVVMENRRLSFLPPERELAFLEEAQSRATAILQRANMVANPAWRSL
modifications: Pseudomonas
B8: L88AL92AY93L: mutated TriA variant of SEQ ID NO: 2 (protein)
chain: MQTLSIQHGTLVTMDQYRRVLGDSWVHVQDGRIVALGVHAESVPPPADRVIDARGKVVLPGFINAHTHVNQILLRGGPSHGRQLYDWAFNVALPGQKAMRPEDVAVAVRLYCAEAVRSGITTINDNADSAIYPGNIEAAMAVYGEVGVRVVYARMFFDRMDGRIQGYVDALKARSPQVELCSIMEETAVAKDRITALSDQYHGTAGGRISVWPAPAITPAVTVEGMRWAQAFARDRAVMWTLHMAESDHDERLHWMSPAEYMECYGLLDERLQVAHCVYFDRKDVRLLHRHNVKVASQVVSNAYLGSGVAPVPEMVERGMAVGIGTDDGNCNDSVNMIGDMKFMAHIHRAVHRDADVLTPEKILEMATIDGARSLGMDHEIGSIETGKRADLILLDLRHPQTTPHHHLAATIVFQAYGNEVDTVLIDGNVVMENRRLSFLPPERELAFLEEAQSRATAILQRANMVANPAWRSL
modifications: Pseudomonas
B9: Y85LL88AL92AY93L: mutated TriA variant of SEQ ID NO: 2 (protein)
chain: MQTLSIQHGTLVTMDQYRRVLGDSWVHVQDGRIVALGVHAESVPPPADRVIDARGKVVLPGFINAHTHVNQILLRGGPSHGRQLLDWAFNVALPGQKAMRPEDVAVAVRLYCAEAVRSGITTINDNADSAIYPGNIEAAMAVYGEVGVRVVYARMFFDRMDGRIQGYVDALKARSPQVELCSIMEETAVAKDRITALSDQYHGTAGGRISVWPAPAITPAVTVEGMRWAQAFARDRAVMWTLHMAESDHDERLHWMSPAEYMECYGLLDERLQVAHCVYFDRKDVRLLHRHNVKVASQVVSNAYLGSGVAPVPEMVERGMAVGIGTDDGNCNDSVNMIGDMKFMAHIHRAVHRDADVLTPEKILEMATIDGARSLGMDHEIGSIETGKRADLILLDLRHPQTTPHHHLAATIVFQAYGNEVDTVLIDGNVVMENRRLSFLPPERELAFLEEAQSRATAILQRANMVANPAWRSL
modifications: Pseudomonas

The format of this series is biochemical. The conditions noted are these: pH 7.2. In short, it runs like this:
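% degradation measured against empty-vector control by UPLC-HR-MS, with product identity confirmed by exact mass and MS-MS. Conditions: 25 mM sodium phosphate pH 7.2, 30 °C, substrates at 1–10 nM. Enzyme source: TriA-expressing E. coli resting cells incubated with azines, melamine or atrazine.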
For B1, the “Degradation in % of 6-cyclopentyl-N4-(2,3,4,5,6-pentafluorophenyl)-1,3,5-triazine-2,4-diamine” value worked out at 15% and the “Degradation in % of Melamine” value stood at 0%.

In the case of B2, the “Degradation in % of 6-cyclopentyl-N4-(2,3,4,5,6-pentafluorophenyl)-1,3,5-triazine-2,4-diamine” value is listed as 13% and the “Degradation in % of Melamine” value came to 0%.

With B3, the “Degradation in % of 6-cyclopentyl-N4-(2,3,4,5,6-pentafluorophenyl)-1,3,5-triazine-2,4-diamine” value is recorded as 99% and the “Degradation in % of Melamine” value is 0%.

For the molecule B4, the “Degradation in % of 6-cyclopentyl-N4-(2,3,4,5,6-pentafluorophenyl)-1,3,5-triazine-2,4-diamine” value amounted to 9% and the “Degradation in % of Melamine” value is on record as 0%.

On to B5, for which the “Degradation in % of 6-cyclopentyl-N4-(2,3,4,5,6-pentafluorophenyl)-1,3,5-triazine-2,4-diamine” value is given as 25% and the “Degradation in % of Melamine” value stood at 0%.

Consider B6, for which the “Degradation in % of 6-cyclopentyl-N4-(2,3,4,5,6-pentafluorophenyl)-1,3,5-triazine-2,4-diamine” value was 36% and the “Degradation in % of Melamine” value worked out at 0%.

For the molecule B7, the “Degradation in % of 6-cyclopentyl-N4-(2,3,4,5,6-pentafluorophenyl)-1,3,5-triazine-2,4-diamine” value is listed as 0% and the “Degradation in % of Melamine” value came to 0%.

For the molecule B8, the “Degradation in % of 6-cyclopentyl-N4-(2,3,4,5,6-pentafluorophenyl)-1,3,5-triazine-2,4-diamine” value worked out at 35% and the “Degradation in % of Melamine” value is given as 0%.

As to B9, the “Degradation in % of 6-cyclopentyl-N4-(2,3,4,5,6-pentafluorophenyl)-1,3,5-triazine-2,4-diamine” value is listed as 13% and the “Degradation in % of Melamine” value is 0%.

(Values after US11499162B2, “Plants having increased tolerance to herbicides” (BASF SE, priority 2016, dated 2022).)
